# ± gives the standard deviation of the averaged measurements.
# System: Saccharomyces cerevisiae
# Test: protein stability index of tFT-peptide fusion (C-terminal peptide) (PSI (0-1 scale)); higher = more stable (slower turnover)
# Settings: genetic background: wild type; temperature: 30 C
# Description: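 MPS profiling in S. cerevisiae of the tFT-X12 degron library: putative degron peptides plus stable controls, 12 aa, fused to the C-terminus of a sfGFP-mCherry timer. Cells are FACS-sorted into 8 mCherry/sfGFP bins and deep-sequenced. PSI runs from 0 (unstable) to 1 (stable). Backgrounds are wild type, das1Δ and doa10Δ at 30 °C, and wild type, das1Δ, cdc34-1 and cdc53-1 at 37 °C; 2-3 technical replicates each.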
row,Sequence,protein stability index
1,YNNKITRYRRDS,0.375 ± 0.024
2,YRNRKMYCITNC,0.26 ± 0.017
3,YTHRYFVRLFAV,0.2 ± 0.014
4,YVLVVSFLACVF,0.13 ± 0.014
5,YWIFCYFFWGGV,0.35 ± 0.015

# Same assay, conditions: genetic background: wild type; temperature: 37 C
row,Sequence,protein stability index
1,WFGGVRVPRHVV,0.645 ± 0.026
2,WFLWWCVCLFVF,0.299 ± 0.0032
3,WFWTFIWLIMDD,0.504 ± 0.043
4,WGFLRVMVDIEL,0.303 ± 0.017
5,WGRTIGATFTGR,0.746 ± 0.019
6,WILSIVVWGKRV,0.209 ± 0.019
7,WMSVKLLTLRLC,0.124 ± 0.0049
8,WPRLSHIASFLA,0.509 ± 0.0095
9,WRFFLLLFFFGF,0.531 ± 0.012
10,WRIDVTIVCLGY,0.294 ± 0.019
11,WSCGRVWQRFCD,0.711 ± 0.016
12,WSSAHVAWCYTT,0.42 ± 0.0059
13,WTILTVMFCSYI,0.377 ± 0.019
14,WVDVAGIVAVAG,0.5495 ± 0.003
15,WWGIVIVGGLGC,0.564 ± 0.024
16,YAFTCFLLVVAP,0.259 ± 0.022
17,YFFGWSVSLLIL,0.2397 ± 0.0019
18,YFLAMFIISGGV,0.443 ± 0.031
19,YILPTPTVISLA,0.326 ± 0.01
20,YLGPHLRWARCV,0.183 ± 0.033
21,YLSLPSSIFLCF,0.5422 ± 0.0047
22,YLTLAGFPLNLF,0.531 ± 0.011
23,YNNKITRYRRDS,0.612 ± 0.0082
24,YRNRKMYCITNC,0.51 ± 0.058
25,YTHRYFVRLFAV,0.405 ± 0.0098
26,YVLVVSFLACVF,0.234 ± 0.0088
27,YWIFCYFFWGGV,0.501 ± 0.02

# System: Saccharomyces cerevisiae
# Test: as above
# Settings: genetic background: wild type; temperature: 30 C
# Remark: another data set of the same source
row,Sequence,protein stability index
1,WFGGVRVPRHVV,0.455 ± 0.032
2,WFLWWCVCLFVF,0.307 ± 0.0073
3,WFWTFIWLIMDD,0.439 ± 0.0064
4,WGFLRVMVDIEL,0.252 ± 0.016
5,WGRTIGATFTGR,0.595 ± 0.15
6,WILSIVVWGKRV,0.188 ± 0.068
7,WMSVKLLTLRLC,0.199 ± 0.0094
8,WPRLSHIASFLA,0.459 ± 0.025
9,WRFFLLLFFFGF,0.465 ± 0.026
10,WRIDVTIVCLGY,0.3 ± 0.03
11,WSCGRVWQRFCD,0.7065 ± 0.0045
12,WSSAHVAWCYTT,0.304 ± 0.013
13,WTILTVMFCSYI,0.275 ± 0.026
14,WVDVAGIVAVAG,0.522 ± 0.036
15,WWGIVIVGGLGC,0.489 ± 0.051
16,YAFTCFLLVVAP,0.237 ± 0.013
17,YFFGWSVSLLIL,0.184 ± 0.019
18,YFLAMFIISGGV,0.478 ± 0.073
19,YILPTPTVISLA,0.337 ± 0.029
20,YLGPHLRWARCV,0.254 ± 0.015
21,YLSLPSSIFLCF,0.422 ± 0.085
22,YLTLAGFPLNLF,0.469 ± 0.041
23,YNNKITRYRRDS,0.52 ± 0.082
24,YRNRKMYCITNC,0.423 ± 0.014
25,YTHRYFVRLFAV,0.3123 ± 0.0026
26,YVLVVSFLACVF,0.192 ± 0.012
27,YWIFCYFFWGGV,0.455 ± 0.037

# System: Saccharomyces cerevisiae
# Test: as above
# Settings: genetic background: das1 deletion; temperature: 30 C
# Description: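 MPS profiling in S. cerevisiae of the yeast C-terminome library: the last 12 aa of each annotated ORF are fused to the C-terminus of a sfGFP-mCherry timer, after a GGGS linker. Cells are FACS-sorted into 8 mCherry/sfGFP bins and deep-sequenced. PSI runs from 0 (unstable) to 1 (stable); wild type and das1Δ backgrounds, two technical replicates each.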
row,Sequence,protein stability index
1,AALESEDEDDEA [CAF20 C-terminal 12 aa],0.685 ± 0.041
2,ADDDFDADMELE [CDC16 C-terminal 12 aa],0.685 ± 0.0038
3,ADQELFMGIMNA [NMD5 C-terminal 12 aa],0.676 ± 0.012
4,AERAGNAGVKAE [SND3 C-terminal 12 aa],0.654 ± 0.0096
5,AFTAKWKAENKQ [FYV4 C-terminal 12 aa],0.691 ± 0.017
6,AGAAAVANQGKK [GPM1 C-terminal 12 aa],0.697 ± 0.016
7,AIAEIKKSLAFA [SDH2 C-terminal 12 aa],0.684 ± 0.024
8,AIRRENEWAEDR [SKP1 C-terminal 12 aa],0.6841 ± 0.005
9,AKDIKGYGTQKI [PRE4 C-terminal 12 aa],0.65979 ± 0.00058
10,AKISDKENKAFL [MRPL15 C-terminal 12 aa],0.6927 ± 0.0019
11,AKPALFERFINA [MCD1 C-terminal 12 aa],0.6979 ± 0.0043
12,AKTSLYTATVIS [PAC11 C-terminal 12 aa],0.636 ± 0.015
13,ALNQVLGVPGAM [SSH1 C-terminal 12 aa],0.683 ± 0.017
14,ALVDQLIAKYSS [ACB1 C-terminal 12 aa],0.703 ± 0.029
15,ANARLESESKDP [UNG1 C-terminal 12 aa],0.6954 ± 0.0034
16,ANGTSPGVHVRE [IRC15 C-terminal 12 aa],0.693 ± 0.0096
17,ARGAGGFGSTGN [DUT1 C-terminal 12 aa],0.697 ± 0.0079
18,ARRTFTGRKIVY [ARC35 C-terminal 12 aa],0.7301 ± 0.0013
19,ASEKEKSECVVM [MIY2 C-terminal 12 aa],0.733 ± 0.017
